Reference: US20150087812A1 (Janssen / Centocor, published 2015)
Changes are numbered by the printed parent chain.

B1: Fab F123 (VH H120, VL PH9L4) (Fab, V domains shown)
VH: QVQLVQSGAEVKKPGSSVKVSCKASGGTFSSYAISWVRQAPGQGLEWMGGIIPIFGTANYAQKFQGRVTITADESTSTAYMELSSLRSEDTAVYYCARHDVNSLWAYFDYWGQGTLVTVSS
VL: not shown
notes: Soluble Fab-His
B2: Fab F142 (VH H146, VL L121) (Fab, V domains shown)
VH: B1 VH with H99G, V101Y, S103A, L104I, W105Y, A106Y, Y107A, F108L
VL: DIQMTQSPSSLSASVGDRVTITCRASQSISSYLNWYQQKPGKAPKLLIYAASSLQSGVPSRFSGSGSGTDFTLTISSLQPEDFATYYCQQPISFPYTFGQGTKVEIK
notes: Soluble Fab-His
B3: Fab F133 (VH H134, VL L117) (Fab, V domains shown)
VH: QVQLVQSGAEVKKPGSSVKVSCKASGGTFSSYAISWVRQAPGQGLEWMGGIIPIFGTANYAQKFQGRVTITADESTSTAYMELSSLRSEDTAVYYCARGADSNAVRLVGFDYWGQGTLVTVSS
VL: EIVLTQSPGTLSLSPGERATLSCRASQSVAYSSLAWYQQKPGQAPRLLIYAASSRATGIPDRFSGSGSGTDFTLTISRLEPEDFAVYYCQQSNTPPLTFGQGTKVEIK
notes: Soluble Fab-His
B4: Fab F144 (VH H149, VL L122) (Fab, V domains shown)
VH: QVQLVQSGAEVKKPGSSVKVSCKASGGTFSSYGISWVRQAPGQGLEWMGGIIPIFGTANYAQKFQGRVTITADESTSTAYMELSSLRSEDTAVYYCAREDVNYISTYSEFDYWGQGTLVTVSS
VL: B3 VL with A30R, Y31K, S33G, A51N, S92A, N93T, T94K
notes: Soluble Fab-His
B5: Fab F97 (VH H90, VL IFWL124) (Fab, V domains shown)
VH: QVQLVQSGAEVKKPGSSVKVSCKASGGTFSSYAISWVRQAPGQGLEWMGGIIPIFGTANYAQKFQGRVTITADESTSTAYMELSSLRSEDTAVYYCARDASTYGDLDYWGQGTLVTVSS
VL: B2 VL with S30D, S31G, Y32W, P91S, I92Y, F94T, Y96L
notes: Soluble Fab-His; converted to mAb B18
B6: Fab F53 (VH H2, VL L30) (Fab, V domains shown)
VH: B5 VH with A100D, S101L, T102P, Y103L, D105R
VL: EIVLTQSPATLSLSPGERATLSCRASQSVNKHLAWYQQKPGQAPRLLIYKASNRATGIPARFSGSGSGTDFTLTISSLEPEDFAVYYCQQGIRAPYTFGQGTKVEIK
notes: Soluble Fab-His; converted to mAb B4; also called P53
B7: Fab F33 (VH H24, VL L35) (Fab, V domains shown)
VH: not shown
VL: B2 VL with S30H, S31N, Y32W, P91S, I92Y, F94T, Y96L
notes: Soluble Fab-His; converted to mAb B15; the Fab's H24 may differ in FR1
B8: Fab F86 (VH H80, VL L80) (Fab, V domains shown)
VH: B1 VH with H99P, D100I, V101G, N102T, S103G, L104Y, W105Y, A106G, Y107F
VL: B2 VL with S30A, S31K, Y32W, A50F, P91S, I92Y, F94T, Y96L
notes: Soluble Fab-His; converted to mAb B7
B9: Fab F16 (VH H10, VL L13) (Fab, V domains shown)
VH: EVQLVQSGAEVKKPGESLKISCKGSGYSFTSYWIGWVRQMPGKGLEWMGIIYPGDSDTRYSPSFQGQVTISADKSISTAYLQWSSLKASDTAMYYCARGLADFWYFDYWGQGTLVTVSS
VL: B2 VL with S30D, S31V, Y32W, P91S, I92Y, F94T, Y96L
notes: Soluble Fab-His; converted to mAb B2
B10: Fab F2 (VH H2, VL L1) (Fab, V domains shown)
VH: B5 VH with A100D, S101L, T102P, Y103L, D105R
VL: B6 VL with N30R, K31N, H32F, K50D, I92Y, Y96I
notes: Soluble Fab-His
B11: Fab F143 (VH H148, VL H2RL12) (Fab, V domains shown)
VH: B5 VH with A100F, T102V, L106F
VL: B2 VL with S30A, S31K, Y32W, P91S, I92Y, F94T, Y96L
notes: Soluble Fab-His; converted to mAb B13
B12: Fab F32 (VH H7, VL PH9L4) (Fab, V domains shown)
VH: B5 VH with A100D, S101V, T102A, Y103L, D105R
VL: not shown
notes: Soluble Fab-His
B13: Fab F13 (VH H2, VL L11) (Fab, V domains shown)
VH: B5 VH with A100D, S101L, T102P, Y103L, D105R
VL: B6 VL with N30A, K31D, H32W, K50N, G91Y, A94W, Y96I
notes: Soluble Fab-His
B14: Fab F8 (VH H2, VL L7) (Fab, V domains shown)
VH: B5 VH with A100D, S101L, T102P, Y103L, D105R
VL: B6 VL with N30R, K31D, H32W, K50G, I92D, R93G, A94W, Y96W
notes: Soluble Fab-His
B15: Fab F9 (VH H2, VL L8) (Fab, V domains shown)
VH: B5 VH with A100D, S101L, T102P, Y103L, D105R
VL: B6 VL with N30A, H32D, K50T, R93N, A94W, Y96F
notes: Soluble Fab-His
B16: Fab F11 (VH H2, VL L9) (Fab, V domains shown)
VH: B5 VH with A100D, S101L, T102P, Y103L, D105R
VL: B6 VL with N30A, K31D, H32F, K50T, I92S, R93T
notes: Soluble Fab-His
B17: Fab F73 (VH H66, VL L67) (Fab, V domains shown)
VH: B5 VH with A100L, S101Y, T102I
VL: B2 VL with S30G, S31G, Y32W, A50T, P91S, I92Y, S93T, F94Y, Y96I
notes: Soluble Fab-His; converted to mAb B6
B18: Fab F50 (VH H25, VL L46) (Fab, V domains shown)
VH: B5 VH with A100D, S101L, T102A, Y103L, D105R
VL: B6 VL with N30S, K31S, H32F, K50T, G91S, I92H, Y96W
notes: Soluble Fab-His
B19: Fab F7 (VH H2, VL L6) (Fab, V domains shown)
VH: B5 VH with A100D, S101L, T102P, Y103L, D105R
VL: B6 VL with K31S, H32W, K50Y, I92H, A94W, Y96F
notes: Soluble Fab-His
B20: Fab F45 (VH H2, VL L34) (Fab, V domains shown)
VH: B5 VH with A100D, S101L, T102P, Y103L, D105R
VL: B6 VL with N30S, K31S, H32W, K50Y, G91F, I92K, R93G, A94W, Y96F
notes: Soluble Fab-His
B21: Fab F102 (VH H2, VL L91) (Fab, V domains shown)
VH: B5 VH with A100D, S101L, T102P, Y103L, D105R
VL: B6 VL with N30A, K31D, H32W, G91S, I92F, A94W, Y96L
notes: Soluble Fab-His
B22: Fab F54 (VH H44, VL IFWL195) (Fab, V domains shown)
VH: not shown
VL: B2 VL with S30A, S31N, Y32W, P91S, I92Y, F94T, Y96L
notes: Soluble Fab-His; converted to mAb B17; the Fab's H44 may differ in FR1
B23: Fab F104 (VH H96, VL IFWL124) (Fab, V domains shown)
VH: B5 VH with T57N, A58T, A100I, T102G
VL: B2 VL with S30D, S31G, Y32W, P91S, I92Y, F94T, Y96L
notes: Soluble Fab-His; converted to mAb B14
B24: Fab F96 (VH H89, VL IFWL124) (Fab, V domains shown)
VH: B5 VH with A100S, T102A, L106F
VL: B2 VL with S30D, S31G, Y32W, P91S, I92Y, F94T, Y96L
notes: Soluble Fab-His; converted to mAb B8
B25: Fab F35 (VH H25, VL L29) (Fab, V domains shown)
VH: B5 VH with A100D, S101L, T102A, Y103L, D105R
VL: B6 VL with N30A, H32F, I92H, R93G, A94W, Y96R
notes: Soluble Fab-His
B26: Fab F3 (VH H2, VL L2) (Fab, V domains shown)
VH: B5 VH with A100D, S101L, T102P, Y103L, D105R
VL: B6 VL with K31N, H32F, K50G, G91F, I92K, R93G, Y96L
notes: Soluble Fab-His
B27: Fab F43 (VH H2, VL L44) (Fab, V domains shown)
VH: B5 VH with A100D, S101L, T102P, Y103L, D105R
VL: B6 VL with N30A, H32F, G91Y, I92S, R93T, A94W, Y96F
notes: Soluble Fab-His
B28: Fab F71 (VH H2, VL L65) (Fab, V domains shown)
VH: B5 VH with A100D, S101L, T102P, Y103L, D105R
VL: B6 VL with N30S, K31D, H32Y, K50D, I92S, R93D, Y96L
notes: Soluble Fab-His
B29: Fab F34 (VH H2, VL L28) (Fab, V domains shown)
VH: B5 VH with A100D, S101L, T102P, Y103L, D105R
VL: B6 VL with N30A, H32F, G91F, I92N, R93S, Y96I
notes: Soluble Fab-His; converted to mAb B5
B30: Fab F62 (VH H54, VL GCGL18) (Fab, V domains shown)
VH: B5 VH with D99E, A100D, S101V, T102A, Y103L, D105R
VL: not shown
notes: Soluble Fab-His
B31: Fab F17 (VH H11, VL L14) (Fab, V domains shown)
VH: EVQLVQSGAEVKKPGESLKISCKGSGYSFTSYWIGWVRQMPGKGLEWMGIIYPGDSDTRYSPSFQGQVTISADKSISTAYLQWSSLKASDTAMYYCARPYGTFDYWGQGTLVTVSS
VL: B6 VL with N30A, K31D, H32S, G91S, I92N, R93G, A94W, Y96R
notes: Soluble Fab-His (E. coli supernatant); converted to mAb B3
B32: Fab F121 (VH H115, VL L106) (Fab, V domains shown)
VH: B1 VH with H99G, V101A, S103A, W105Y, A106D
VL: B6 VL with N30S, K31N, H32W, K50T, G91R, I92Y, R93T, Y96W
notes: Soluble Fab-His

Assays:
[1] = molecular target: T1, recombinant human ATX beta isoform with N-terminal purification tag (human, UniProt Q13822 49-863); experiment: Fab-His ELISA
Protocol: (§1) Fabs were captured on black MaxiSorp plates (Nunc, Cat. No. 437111) coated with 1 μg/ml sheep anti-human Fd (CH1) antibody (The Binding Site, Cat. No. PC075). Plates were washed and biotinylated human ATX was added to the captured Fabs at 5 nM. Incubation was carried out for 1 hour at room temperature with gentle shaking. Plates were washed, SA-HRP (Invitrogen, Cat. No. 43-4323) was added and chemiluminescent detection carried out.
(§2) Clones with binding above background were sequenced and unique clones identified. […] These clones were identified with binding signal to human ATX at least 6-fold above the background. Table 3 lists the identifier for VH and VL (Peptide ID) and the combination of both (Fab ID) sorted by the Fab ELISA binding data.

[2] = molecular target: T1, recombinant human ATX beta isoform with …; experiment: ELISA, Fab-His captured by anti-Fd, 5 nM biotinylated human ATX beta
Protocol: as §1, §2

Binder	fold above background [1]	Fab Binding [2]
B1	≥ 6 fold	1.4e+06 relative chemiluminescence units
B2	≥ 6 fold	1.3e+06 relative chemiluminescence units
B3	≥ 6 fold	1.2e+06 relative chemiluminescence units
B4	≥ 6 fold	1.2e+06 relative chemiluminescence units
B5	≥ 6 fold	5.8e+06 relative chemiluminescence units
B6	≥ 6 fold	2.4e+06 relative chemiluminescence units
B7	≥ 6 fold	1.1e+06 relative chemiluminescence units
B8	≥ 6 fold	4.2e+06 relative chemiluminescence units
B9	≥ 6 fold	3.9e+06 relative chemiluminescence units
B10	≥ 6 fold	1.5e+06 relative chemiluminescence units
B11	≥ 6 fold	4.9e+06 relative chemiluminescence units
B12	≥ 6 fold	2e+06 relative chemiluminescence units
B13	≥ 6 fold	1.1e+06 relative chemiluminescence units
B14	≥ 6 fold	1.6e+06 relative chemiluminescence units
B15	≥ 6 fold	1e+06 relative chemiluminescence units
B16	≥ 6 fold	1.8e+06 relative chemiluminescence units

Binder	fold above background [1]	Fab Binding [2]
B17	≥ 6 fold	1.7e+07 relative chemiluminescence units
B18	≥ 6 fold	1.9e+06 relative chemiluminescence units
B19	≥ 6 fold	1.8e+06 relative chemiluminescence units
B20	≥ 6 fold	1.2e+06 relative chemiluminescence units
B21	≥ 6 fold	1.3e+06 relative chemiluminescence units
B22	≥ 6 fold	980000 relative chemiluminescence units
B23	≥ 6 fold	5.1e+06 relative chemiluminescence units
B24	≥ 6 fold	5.9e+06 relative chemiluminescence units
B25	≥ 6 fold	2.1e+06 relative chemiluminescence units
B26	≥ 6 fold	1.4e+06 relative chemiluminescence units
B27	≥ 6 fold	980000 relative chemiluminescence units
B28	≥ 6 fold	1.7e+06 relative chemiluminescence units
B29	≥ 6 fold	2.3e+06 relative chemiluminescence units
B30	≥ 6 fold	1.6e+06 relative chemiluminescence units
B31	≥ 6 fold	2.4e+07 relative chemiluminescence units
B32	≥ 6 fold	1.4e+06 relative chemiluminescence units
